# Test results reported in patent publication US10227575B2, “Multi-domain enzymes having cutinase activity, compositions comprising same and uses thereof” (OZYMES, priority 2015, dated 2019).
# Values joined by “and” are separate entries in the source; they are usually repeats but may differ in a detail not shown here. Equal entries are not always repeated. Where two headings read alike, the source gives them in different places. Marks after values point to notes of the source that are not given here.
# What was measured:
# [1] = Enzymatic activity in the presence of organic solvents; type: biochemical; details: buffer only = 100%
# Procedure: Enzyme activity in various organic solvents was studied over a concentration range of 1-30% at room temperature. pNP-palmitate was completely dissolved in 2-propanol (8 mM) and then added to 50 mM Tris/HCl buffer pH 8.0 containing up to 30% organic solvent to give a final substrate concentration of 0.8 mM. The reaction was started by addition of enzyme and the formation of pNP was assayed as described above in Example 20.1.
# [2] = Stability in the presence of hydrogen peroxide; type: physicochemical
# Outline: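 Purified cutinases held at room temperature with 0, 30, 100, 300, 1500 or 3000 ppm H2O2; residual esterase activity assayed after 1, 2, 3 and 7 days. Activity read as pNP release at 410 nm from pNP-esters (0.8 mM final) in 50 mM Tris/HCl pH 8.0; U = 1 μmol pNP/min, ε 15 mM^−1 cm^−1.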
# [3] = Activity of crude culture supernatants from bioreactor; type: biochemical; details: pNP-dodecanoate
# pH dependence of enzymes = type: biochemical; details: for Relative activity (%): highest activity = 100%
# Procedure: The influence of different pH values (from 5.5 to 11) on the activities of the purified enzymes was examined in three buffer systems (sodium acetate, sodium phosphate, and Tris-HCl) at room temperature using pNP-palmitate (see esterase assay in Example 20.1) as a substrate at a final substrate concentration of 0.8 mM.
# [4] = type: biochemical, Petromyces albertensis; details: for Residual ochratoxin A (%): 5 ppm Ochratoxin A, 37° C., relative to incubation without enzyme
# [5] = Circular dichroism spectroscopy, melting temperature and refolding; type: physicochemical
# Outline: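 Purified protein at 0.15 mg/mL where possible; far-UV CD spectra recorded 190–250 nm against a buffer blank. Unfolding followed at 222 nm from 20 to 90° C. at 2° C. min-1, held 5 min at maximum, then refolding tracked on the reverse ramp; Tm, ΔH, ΔS, ΔG calculated where applicable.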
# Temperature optimum = type: biochemical; details: for Relative activity at temperature: highest activity set to 100%
# Procedure: For estimation of the temperature optimum, buffer containing pNP-palmitate (see esterase assay in Example 20.1) was pre-incubated to reach the desired temperature, enzyme was then added, and the formation of pNP was assayed. For this experiment, Tris/HCl buffer was replaced with sodium phosphate buffer (50 mM, pH 8.0) to avoid a pH shift at the different temperatures.
molecule,measurement,setting,value
"Cf-TP: chimeric variant: catalytic and polymer binding domains of CfCUT with T/P-rich linker domain of KrCUT, SEQ ID NO: 29 (protein, YebF carrier; Cf-TP variant) APACPDVELVFARGTGEAAGLGIVGRPLERALAAELPGRTVVATAVDYAASSSQASAGPGSGDMVAKVRSRAAACPGTQFVLGGYSQGATVTDLALGIRTGVTAGTALPEDLAARVAAVVVYGNPLGLTRRTIAQAAPAFATRTVEYCNAGDPVCEPGGGRFTAHITYATNGTVLEGARFAAARVTAAGTPTTPTPTPTPTPVPTTCVTASSLQHVRDGRAYPLWMRTYARGSGDPLGVLSSRTVVSLQADGTDTWRKVAAC",Relative enzymatic activity (%),[1]; 2-Propanol 5% (v/v),93 ± 1%
same,Relative enzymatic activity (%),[1]; 2-Propanol 10% (v/v),92 ± 2%
same,Relative enzymatic activity (%),[1]; Acetone 1% (v/v),103 ± 12%
same,Relative enzymatic activity (%),[1]; Acetone 5% (v/v),112 ± 10%
same,Relative enzymatic activity (%),[1]; Acetone 10% (v/v),109 ± 6%
same,Relative enzymatic activity (%),[1]; Dimethyl sulfoxide (DMSO) 10% (v/v),150 ± 14%
same,Relative enzymatic activity (%),[1]; Dimethyl sulfoxide (DMSO) 20% (v/v),146 ± 23%
same,Relative enzymatic activity (%),[1]; Dimethyl sulfoxide (DMSO) 30% (v/v),129 ± 18%
same,Relative enzymatic activity (%),[1]; Dimethylformamide (DMF) 5% (v/v),134 ± 10%
same,Relative enzymatic activity (%),[1]; Methanol 10% (v/v),121 ± 14%
same,Relative enzymatic activity (%),[1]; Methanol 20% (v/v),94 ± 1%
same,Relative activity (%) after exposure to hydrogen peroxide,"[2]; H2O2 30 ppm, Day 0",97 ± 1%
same,Relative activity (%) after exposure to hydrogen peroxide,"[2]; H2O2 30 ppm, Day 1",89 ± 4%
same,Relative activity (%) after exposure to hydrogen peroxide,"[2]; H2O2 30 ppm, Day 2",78 ± 3%
same,Relative activity (%) after exposure to hydrogen peroxide,"[2]; H2O2 30 ppm, Day 3",86 ± 2%
same,Relative activity (%) after exposure to hydrogen peroxide,"[2]; H2O2 30 ppm, Day 7",65 ± 7%
same,Relative activity (%) after exposure to hydrogen peroxide,"[2]; H2O2 100 ppm, Day 0",98 ± 6%
same,Relative activity (%) after exposure to hydrogen peroxide,"[2]; H2O2 100 ppm, Day 1",91 ± 3%
same,Relative activity (%) after exposure to hydrogen peroxide,"[2]; H2O2 100 ppm, Day 2",89 ± 7%
same,Relative activity (%) after exposure to hydrogen peroxide,"[2]; H2O2 100 ppm, Day 3",94 ± 7%
same,Relative activity (%) after exposure to hydrogen peroxide,"[2]; H2O2 100 ppm, Day 7",74 ± 6%
same,Relative activity (%) after exposure to hydrogen peroxide,"[2]; H2O2 300 ppm, Day 0",95 ± 6%
same,Relative activity (%) after exposure to hydrogen peroxide,"[2]; H2O2 300 ppm, Day 1",88 ± 3%
same,Relative activity (%) after exposure to hydrogen peroxide,"[2]; H2O2 300 ppm, Day 2",85 ± 12%
same,Relative activity (%) after exposure to hydrogen peroxide,"[2]; H2O2 300 ppm, Day 3",98 ± 3%
same,Relative activity (%) after exposure to hydrogen peroxide,"[2]; H2O2 300 ppm, Day 7",77 ± 5%
same,Relative activity (%) after exposure to hydrogen peroxide,"[2]; H2O2 1,500 ppm, Day 0",95 ± 9%
same,Relative activity (%) after exposure to hydrogen peroxide,"[2]; H2O2 1,500 ppm, Day 1",89 ± 3%
same,Relative activity (%) after exposure to hydrogen peroxide,"[2]; H2O2 1,500 ppm, Day 2",88 ± 6%
same,Relative activity (%) after exposure to hydrogen peroxide,"[2]; H2O2 1,500 ppm, Day 3",87 ± 4%
same,Relative activity (%) after exposure to hydrogen peroxide,"[2]; H2O2 1,500 ppm, Day 7",68 ± 7%
same,Relative activity (%) after exposure to hydrogen peroxide,"[2]; H2O2 3,000 ppm, Day 0",80% and 80 ± 2%
same,Relative activity (%) after exposure to hydrogen peroxide,"[2]; H2O2 3,000 ppm, Day 1",74 ± 5%
same,Relative activity (%) after exposure to hydrogen peroxide,"[2]; H2O2 3,000 ppm, Day 2",77 ± 2%
same,Relative activity (%) after exposure to hydrogen peroxide,"[2]; H2O2 3,000 ppm, Day 3",78 ± 5%
same,Relative activity (%) after exposure to hydrogen peroxide,"[2]; H2O2 3,000 ppm, Day 7",57% and 57 ± 5%
same,activity of crude culture supernatant,[3],0.6 U/mL
same,pH opt.,pH dependence of enzymes,9.5
same,Relative activity (%),"pH dependence of enzymes; pH 6.5, sodium phosphate buffer",12 ± 1%
same,Relative activity (%),"pH dependence of enzymes; pH 7.0, sodium phosphate buffer",22 ± 1%
same,Relative activity (%),"pH dependence of enzymes; pH 7.5, sodium phosphate buffer",36 ± 1%
same,Relative activity (%),"pH dependence of enzymes; pH 8.0, Tris/HCl",65 ± 7%
same,Relative activity (%),"pH dependence of enzymes; pH 8.5, Tris/HCl",88 ± 8%
same,Relative activity (%),"pH dependence of enzymes; pH 9.0, Tris/HCl",95 ± 3%
same,Relative activity (%),"pH dependence of enzymes; pH 9.5, Tris/HCl",100* %
same,Relative activity (%),"pH dependence of enzymes; pH 10, Tris/HCl",35 ± 4%
same,Residual ochratoxin A (%),[4]; 1 h,5%
same,Residual ochratoxin A (%),[4]; 4 h,0%
same,Residual ochratoxin A (%),[4]; 24 h,0%
same,Ochratoxin A degraded,[4]; after 4 hours,100%
same,Ochratoxin A Degradation per U and h,[4]; per 1 U of enzyme (pNP standard test) and hour at 37° C.,98 µmol
same,refolding,[5]; CD at 222 nm,some refolding
same,melting temperature (Tm),"[5]; CD at 222 nm, unfolding",56.6 °C
same,Tm (° C.),[5]; estimated using CD-spectroscopy,57 ± 1 °C
same,Temp. opt. (° C.),Temperature optimum,35 °C
same,Relative activity at temperature,Temperature optimum; 20 ° C.,54 ± 5%
same,Relative activity at temperature,Temperature optimum; 25 ° C.,84 ± 9%
same,Relative activity at temperature,Temperature optimum; 30 ° C.,95 ± 5%
same,Relative activity at temperature,Temperature optimum; 35 ° C.,100* %
same,Relative activity at temperature,Temperature optimum; 40 ° C.,89 ± 6%
same,Relative activity at temperature,Temperature optimum; 45 ° C.,72 ± 7%
same,Relative activity at temperature,Temperature optimum; 50 ° C.,37 ± 6%
same,Relative activity at temperature,Temperature optimum; 55 ° C.,9 ± 1%
